Source: article PMC4497409

B1: Biotinylated human Norrin wild-type (pHL-Avitag3 construct) [modified: biotin on the C-terminal BirA recognition sequence (in vivo biotinylation); biotin on the C-terminal BirA recognition sequence (in vivo … (parent)
chain 1: KTDSSFIMDSDPRRCMRHHYVDSISHPLYKCSSKMVLLARCEGHCSQASRSEPLVSFSTVLKQPFRSSCHCCRPQTSKLKALRLRCSGGMRLTATYRYILSCHCEECNS
chain 2: ERRCDPIRISMCQNLGYNVTKMPNLVGHELQTDAELQLTTFTPLIQYGCSSQLQFFLCSVYVPMCTEKINIPIGPCGGMCLSVKRRCEPVLKEFGFAWPESLNCSKFPPQNDHNHMCMEGPGDEEVPLPHKTPIQPGE

Variants of: B1
Experiment: SPR
Conditions: with Frizzled4 cysteine-rich domain (Fz4CRD), Norrin mutant immobilized on CM5 chip, Fz4CRD as analyte, 1:1 Langmuir binding model

Row | screen value (Surface: 435 RU (WT surface in panel A: 336 RU)) | Kd (Surface: 435 RU) | screen value (Surface: 325 RU (WT surface in panel A: 336 RU)) | Kd (Surface: 325 RU) | Variant
1 | 78 RU | 1060 nM |  |  | chain 1 KTDSSFIMDSDPRRCMRHHYVDSISHPLYKCSSKMVLLARCEGHCSQASRSEPLVSFSTVLKQPFRSSCHCCRPQTSKLKALRLRCSGGNRSTATYRYILSCHCEECNS [chain 1 M90N L92S]
2 |  |  | 122 RU | 1250 nM | chain 1 KTDSSFIMDSDPRRCMRHHYVDSISHPNYSCSSKMVLLARCEGHCSQASRSEPLVSFSTVLKQPFRSSCHCCRPQTSKLKALRLRCSGGMRLTATYRYILSCHCEECNS [chain 1 L28N K30S]
